Assay results published in PMC12440807.

Biological target: RNA polymerase II;RECQL5;CSB;CSA-DDB1;UVSSA;ELOF1 (Sus scrofa domesticus?;Homo …, UniProt A0A8D1DPV6;A0A0B8RVL1;P19387;O15514;I3LSI7;P61218;P62487;P52434;P36954;P52435;P6 …, |||||)
Assay: cryo-EM; 1 mM ADP; phosphorylated Pol II; glutaraldehyde cross-linked; 3.5 A; EMSA: 20 mM HEPES pH 7.5, 66 mM NaCl, 5% glycerol, 1 mM DTT, 0.25 mg/ml BSA, on ice 30 min; 6% gel, 0.5x TBE, 4 C
Details: protein: native;recombinant;recombinant;recombinant;recombinant;recombinant; copies: 1;1;1;1;1;1;1;1;1;1;1;1;1;1;1;1;1;1; 15-nt mismatch bubble; RNA 45 nt, 3' end hybridized to template

B1: EC-TCR DNA-RNA scaffold (mixed)
DNA 1: CGCTCTGCTCCTTCTCCCATCCTCTCGATGGCTATGAGATCAACTAG
DNA 2: CTAGTTGATCTCATATTTCATTCCTACTCAGGAGAAGGAGCAGAGCG
RNA: ACAUCAUAACAUUUGAACAAGAAUAUAUAUACAAAAUCGAGAGGA
Does B1 bind?
Result: binds
